Measurements as given in patent US20210269818A1.

biological target: Rubisco purified from wheat leaves, inhibited by RuBP (ER) (Triticum aestivum (wheat)) (UniProt P11383); test: cell-based or functional assay

Substance | Tm (° C.) (V): thermal midpoint at which half of Rubisco activation velocity by Rca is lost
recombinant rice Rca β (OsRca-β), signal peptide deleted, C-terminal His-tag (from UniProt P93431 49-466) (enzyme) | 42.5 ° C.
recombinant wheat Rca1 β (TaRca1-β), signal peptide deleted, C-terminal His-tag (from UniProt Q42450 44-425) (enzyme) | 42 ° C.
recombinant wheat Rca2 β (TaRca2-β), signal peptide deleted, C-terminal His-tag (from UniProt Q40073 49-427) (enzyme) | 34.8 ° C.
Rca extracted from control wheat leaves (TaRca-leaf-25° C.) (enzyme) | 38.6 ° C.
Rca extracted from heat treated wheat leaves (TaRca-leaf-38° C.) (enzyme) | 39.5 ° C.
recombinant wheat Rca2 α (TaRca2-α), signal peptide deleted, C-terminal His-tag (from UniProt Q40073 47-464) (enzyme) | 35.3 ° C.
